Results: publication PMC5561102, “Fusion protein analysis reveals the precise regulation between Hsp70 and Hsp100 during protein disaggregation” (Scientific Reports, 2017)

Assays:
ClpB (Escherichia coli) = ClpB (Escherichia coli) (UniProt P63284); conditions: cited from earlier work
[1] = biological target: TK-B (Thermus thermophilus) (UniProt Q56235)
[2] = biological target: TK_NBD-B (Thermus thermophilus) (UniProt Q56235)
[3] = biological target: TK_ΔSBDα_K69A-B (Thermus thermophilus) (UniProt Q56235)
[4] = biological target: TK_ΔSBDα_T195A-B (Thermus thermophilus) (UniProt Q56235)
[5] = biological target: TK_NBD_T195A-B (Thermus thermophilus) (UniProt Q56235)
Chain of TK_NBD_T195A-B (Thermus thermophilus) (Q56235 other isoform, or with tags, fused parts or gaps T195A | T195A): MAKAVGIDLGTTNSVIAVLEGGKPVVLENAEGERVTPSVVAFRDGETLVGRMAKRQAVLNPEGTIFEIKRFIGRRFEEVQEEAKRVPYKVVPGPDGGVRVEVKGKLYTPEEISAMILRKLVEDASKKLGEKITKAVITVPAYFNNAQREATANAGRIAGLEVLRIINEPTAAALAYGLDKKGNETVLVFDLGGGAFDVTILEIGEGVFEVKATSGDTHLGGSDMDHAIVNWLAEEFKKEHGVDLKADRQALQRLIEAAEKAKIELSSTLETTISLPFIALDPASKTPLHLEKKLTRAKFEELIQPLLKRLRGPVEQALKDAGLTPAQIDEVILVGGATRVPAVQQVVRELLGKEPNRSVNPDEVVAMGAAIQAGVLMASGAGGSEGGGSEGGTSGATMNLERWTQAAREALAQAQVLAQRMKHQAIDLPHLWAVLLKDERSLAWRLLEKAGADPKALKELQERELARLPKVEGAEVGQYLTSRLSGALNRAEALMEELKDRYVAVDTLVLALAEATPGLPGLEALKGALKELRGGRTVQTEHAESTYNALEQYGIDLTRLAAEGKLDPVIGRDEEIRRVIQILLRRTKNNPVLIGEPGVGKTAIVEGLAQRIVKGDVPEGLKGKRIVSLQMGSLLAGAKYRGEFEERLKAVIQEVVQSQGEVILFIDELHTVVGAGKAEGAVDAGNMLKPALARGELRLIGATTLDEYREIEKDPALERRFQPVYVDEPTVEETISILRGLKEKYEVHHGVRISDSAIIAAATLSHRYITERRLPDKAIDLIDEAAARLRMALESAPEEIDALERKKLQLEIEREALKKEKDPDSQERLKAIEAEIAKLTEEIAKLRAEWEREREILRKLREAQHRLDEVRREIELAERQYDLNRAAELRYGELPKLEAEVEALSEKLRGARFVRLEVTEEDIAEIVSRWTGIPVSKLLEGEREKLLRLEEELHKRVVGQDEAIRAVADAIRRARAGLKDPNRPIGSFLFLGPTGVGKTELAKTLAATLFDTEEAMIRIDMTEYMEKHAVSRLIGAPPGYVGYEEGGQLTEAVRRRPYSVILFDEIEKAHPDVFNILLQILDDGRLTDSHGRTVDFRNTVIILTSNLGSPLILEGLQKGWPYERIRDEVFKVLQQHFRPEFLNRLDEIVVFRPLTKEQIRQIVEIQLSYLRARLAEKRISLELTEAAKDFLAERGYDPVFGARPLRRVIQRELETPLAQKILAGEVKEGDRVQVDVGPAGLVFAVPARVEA

[6] = biological target: TK_NBD_K69A-B (Thermus thermophilus) (UniProt Q56235)
Chain of TK_NBD_K69A-B (Thermus thermophilus) (Q56235 other isoform, or with tags, fused parts or gaps K69A | K69A): as the sequence (Q56235 other isoform, or with tags, fused parts or gaps T195A | T195A) above, with K69A, A195T counted along it

[7] = biological target: TK_NBD-B (Thermus thermophilus) (UniProt Q56235); remark: listed apart in the source
Target sequence in this assay (Q56235 other isoform, or with tags, fused parts or gaps): as the sequence (Q56235 other isoform, or with tags, fused parts or gaps T195A | T195A) above, with A195T counted along it

[8] = biological target: TK_NBD_T195A-B (Thermus thermophilus) (UniProt Q56235); remark: listed apart in the source
[9] = biological target: TK_NBD_K69A-B (Thermus thermophilus) (UniProt Q56235); remark: listed apart in the source
[10] = biological target: TK_NBD-B (Thermus thermophilus) (UniProt Q56235); remark: listed apart in the source
Target sequence in this assay (Q56235 other isoform, or with tags, fused parts or gaps): as the sequence (Q56235 other isoform, or with tags, fused parts or gaps T195A | T195A) above, with A195T counted along it

Chain of Thermus thermophilus DnaK (TDnaK) (Q56235 whole entry, the tested form may be a part): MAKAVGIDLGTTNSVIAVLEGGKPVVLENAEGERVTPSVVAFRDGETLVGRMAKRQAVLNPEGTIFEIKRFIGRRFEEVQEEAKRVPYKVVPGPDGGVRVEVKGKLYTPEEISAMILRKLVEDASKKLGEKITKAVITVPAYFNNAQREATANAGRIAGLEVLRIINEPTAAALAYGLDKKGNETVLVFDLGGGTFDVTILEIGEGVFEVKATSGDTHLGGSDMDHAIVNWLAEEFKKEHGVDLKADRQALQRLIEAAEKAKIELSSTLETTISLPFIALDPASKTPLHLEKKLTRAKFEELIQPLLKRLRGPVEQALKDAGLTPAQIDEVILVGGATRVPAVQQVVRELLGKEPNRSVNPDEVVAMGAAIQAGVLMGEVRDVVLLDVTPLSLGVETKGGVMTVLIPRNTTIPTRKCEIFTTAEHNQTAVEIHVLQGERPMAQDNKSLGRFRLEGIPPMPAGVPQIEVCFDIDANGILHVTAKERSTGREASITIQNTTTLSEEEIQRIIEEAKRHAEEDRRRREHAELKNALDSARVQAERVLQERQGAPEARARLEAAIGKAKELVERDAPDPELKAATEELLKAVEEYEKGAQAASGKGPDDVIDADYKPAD
Chain of DnaK (P0A6Y8 2-638): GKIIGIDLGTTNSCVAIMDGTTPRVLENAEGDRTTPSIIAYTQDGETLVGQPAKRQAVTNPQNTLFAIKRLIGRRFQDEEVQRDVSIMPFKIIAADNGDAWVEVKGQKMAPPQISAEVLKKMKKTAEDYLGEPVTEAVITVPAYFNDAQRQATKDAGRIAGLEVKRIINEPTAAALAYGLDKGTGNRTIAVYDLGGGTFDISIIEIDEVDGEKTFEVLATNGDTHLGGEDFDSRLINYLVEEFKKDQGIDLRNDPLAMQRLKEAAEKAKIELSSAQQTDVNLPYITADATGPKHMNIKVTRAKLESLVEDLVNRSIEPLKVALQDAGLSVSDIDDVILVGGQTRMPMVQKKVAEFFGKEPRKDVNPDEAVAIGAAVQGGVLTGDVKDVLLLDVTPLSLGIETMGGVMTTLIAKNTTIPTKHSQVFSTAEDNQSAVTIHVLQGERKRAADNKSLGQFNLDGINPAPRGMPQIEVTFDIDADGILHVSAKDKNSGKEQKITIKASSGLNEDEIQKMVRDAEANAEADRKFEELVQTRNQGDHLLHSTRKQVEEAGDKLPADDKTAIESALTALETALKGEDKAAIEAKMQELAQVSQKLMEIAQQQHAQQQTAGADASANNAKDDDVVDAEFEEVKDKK
Chain of ClpB (Escherichia coli) (P63284 whole entry): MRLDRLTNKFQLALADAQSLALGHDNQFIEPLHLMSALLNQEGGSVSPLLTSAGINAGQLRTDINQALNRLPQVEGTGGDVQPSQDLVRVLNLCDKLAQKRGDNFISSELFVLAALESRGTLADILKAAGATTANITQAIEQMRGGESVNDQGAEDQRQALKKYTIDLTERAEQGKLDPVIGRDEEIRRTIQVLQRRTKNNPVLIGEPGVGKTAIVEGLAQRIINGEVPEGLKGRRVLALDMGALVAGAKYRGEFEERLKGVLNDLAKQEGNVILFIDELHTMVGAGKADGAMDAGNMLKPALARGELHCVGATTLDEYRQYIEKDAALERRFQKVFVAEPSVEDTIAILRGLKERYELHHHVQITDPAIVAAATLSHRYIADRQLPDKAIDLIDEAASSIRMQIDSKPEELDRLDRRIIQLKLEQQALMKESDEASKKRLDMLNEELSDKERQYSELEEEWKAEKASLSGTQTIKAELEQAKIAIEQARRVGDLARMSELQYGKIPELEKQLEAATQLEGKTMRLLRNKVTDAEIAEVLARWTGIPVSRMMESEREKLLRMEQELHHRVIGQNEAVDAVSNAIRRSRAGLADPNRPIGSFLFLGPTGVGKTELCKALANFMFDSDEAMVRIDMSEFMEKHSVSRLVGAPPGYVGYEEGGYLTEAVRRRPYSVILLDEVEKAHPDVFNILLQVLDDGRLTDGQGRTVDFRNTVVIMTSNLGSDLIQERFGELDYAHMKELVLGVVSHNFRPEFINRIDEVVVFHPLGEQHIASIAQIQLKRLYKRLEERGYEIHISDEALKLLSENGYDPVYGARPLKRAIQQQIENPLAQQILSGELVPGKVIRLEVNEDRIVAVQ

Substance: DnaK (from UniProt P0A6Y8)
- Kd (ClpB (Escherichia coli)): 25 µM

Substance: TK-B (from UniProt Q56235 1-615; Q9RA63 1-854)
- ATPase activity of the fusion (TClpB portion stimulated by the fused TDnaK portion), 55 °C, 3 mM ATP, against unfused TClpB (times that of TClpB) [1]: 5

Substance: TK_NBD-B (from UniProt Q56235 1-377; Q9RA63 1-854)
- ATPase activity of the fusion (TClpB portion stimulated by the fused NBD of TDnaK), 55 °C, 3 mM ATP, against TK-B [2]: 2 fold of TK-B

Substance: TK_ΔSBDα_K69A-B (from UniProt Q56235 1-501; Q9RA63 1-854)
- ATPase activity of the fusion, 55 °C, 3 mM ATP, against TK K69A-B (fold of TK K69A-B) [3]: 1.5

Substance: TK_ΔSBDα_T195A-B (from UniProt Q56235 1-501; Q9RA63 1-854)
- ATPase stimulation of the fusion, 55 °C, 3 mM ATP [4]: 2 fold

Substance: Thermus thermophilus DnaK (TDnaK) (from UniProt Q56235 1-615) (natural protein)
- reactivation of heat-aggregated α-glucosidase by the fusion with unfused TDnaK, TDnaJ, TGrpE (TKJE) and 5 mM ATP, 55 °C, 90 min [5]: < 2%
- reactivation of heat-aggregated α-glucosidase by the fusion with unfused TDnaK, TDnaJ, TGrpE (TKJE) and 5 mM ATP, 55 °C, 90 min [6]: < 2%
- reactivation of heat-aggregated α-glucosidase by the fusion with unfused TDnaK, TDnaJ, TGrpE (TKJE) and 5 mM ATP, 55 °C, 90 min [7]: < 2%
- rate of reactivation of heat-aggregated EYFP by the fusion with unfused TDnaK, TDnaJ, TGrpE (TKJE) and 5 mM ATP, 55 °C [8]: < 0.1 % min^-1
- rate of reactivation of heat-aggregated EYFP by the fusion with unfused TDnaK, TDnaJ, TGrpE (TKJE) and 5 mM ATP, 55 °C [9]: < 0.1 % min^-1
- rate of reactivation of heat-aggregated EYFP by the fusion with unfused TDnaK, TDnaJ, TGrpE (TKJE) and 5 mM ATP, 55 °C [10]: < 0.1 % min^-1
